# Test results as given in US20240307489A1 (WESTLAKE UNIVERSITY, published 2024).
# B1: cSFB-tagged wild-type DLL3 (ligand, human, UniProt Q9NYJ7 27-618, looked up)
# chain: AGVFELQIHSFGPGPGPGAPRSPCSARLPCRLFFRVCLKPGLSEEAAESPCALGAALSARGPVYTEQPGAPAPDLPLPDGLLQVPFRDAWPGTFSFIIETWREELGDQIGGPAWSLLARVAGRRRLAAGGPWARDIQRAGAWELRFSYRARCEPPAVGTACTRLCRPRSAPSRCGPGLRPCAPLEDECEAPLVCRAGCSPEHGFCEQPGECRCLEGWTGPLCTVPVSTSSCLSPRGPSSATTGCLVPGPGPCDGNPCANGGSCSETPRSFECTCPRGFYGLRCEVSGVTCADGPCFNGGLCVGGADPDSAYICHCPPGFQGSNCEKRVDRCSLQPCRNGGLCLDLGHALRCRCRAGFAGPRCEHDLDDCAGRACANGGTCVEGGGAHRCSCALGFGGRDCRERADPCAARPCAHGGRCYAHFSGLVCACAPGYMGARCEFPVHPDGASALPAAPPGLRPGDPQRYLLPPALGLLVAAGVAGAALLLVHVRRRGHSQDAGSRLLAGTPEPSVHALPDALNNLRTQEGSGDGPSSSVDWNRPEDVDPQGIYVISAPSIYAREVATPLFPPLHTGRAGQRQHLLFPYPSSILSVK
# notes: Expressed in HEK293T cells, pulled down on S beads; also called cSFB-DLL3; C-terminal SFB-fused DLL3; not shown: C-terminal SFB triple tag (S protein tag-2xFLAG tag-SBP tag)
# Biological target: T1, LRP1 (low density lipoprotein receptor-related protein 1), endogenous in HEK293T cells (human, UniProt Q07954 20-4544)
# T1 construct: Endogenous protein in HEK293T lysates (TAP-MS prey, co-IP); also called endogenous LRP1
# Experiment: TAP-MS of SFB-tagged Notch pathway proteins in HEK293T cells
# Procedure: We picked 12 clones of each bait for the follow-up experiments and confirmed the bait protein expression and localization using Western blotting and immunostaining, respectively. From which, we chose two clones of each bait with the correct subcellular localization and a moderate expression close to that of endogenous one as biological repeat for TAP-MS analysis. HEK293T cells stably expressing C-terminal SFB-fused Notch pathway proteins were selected via culture in medium containing 2 μg/ml puromycin. Protein expression was confirmed via immunostaining and Western blotting as described previously (Wang, W., Li, X., Huang, J., Feng, L., Dolinta, K. G., and Chen, J. (2014). Defining the protein-protein interaction network of the human hippo pathway. Mol Cell Proteomics 13, 119-131.).
# For TAP experiments, the membrane-bound and soluble proteins of 2×10⁸ HEK293T cells were extracted using a membrane/soluble protein isolation kit (Beyotime, China) with protease inhibitors at 4° C. The insoluble pellets from the crude lysis step were briefly sonicated and incubated with TurboNuclease for 30 min at 37° C. with occasional vortexing to extract chromatin-bound protein complexes. The lysates were then centrifuged at 14,000 rpm for 30 min at 4° C., and the supernatant was collected as a chromatin fraction. […]
# T1 sequence (Q07954 20-4544 limits assumed): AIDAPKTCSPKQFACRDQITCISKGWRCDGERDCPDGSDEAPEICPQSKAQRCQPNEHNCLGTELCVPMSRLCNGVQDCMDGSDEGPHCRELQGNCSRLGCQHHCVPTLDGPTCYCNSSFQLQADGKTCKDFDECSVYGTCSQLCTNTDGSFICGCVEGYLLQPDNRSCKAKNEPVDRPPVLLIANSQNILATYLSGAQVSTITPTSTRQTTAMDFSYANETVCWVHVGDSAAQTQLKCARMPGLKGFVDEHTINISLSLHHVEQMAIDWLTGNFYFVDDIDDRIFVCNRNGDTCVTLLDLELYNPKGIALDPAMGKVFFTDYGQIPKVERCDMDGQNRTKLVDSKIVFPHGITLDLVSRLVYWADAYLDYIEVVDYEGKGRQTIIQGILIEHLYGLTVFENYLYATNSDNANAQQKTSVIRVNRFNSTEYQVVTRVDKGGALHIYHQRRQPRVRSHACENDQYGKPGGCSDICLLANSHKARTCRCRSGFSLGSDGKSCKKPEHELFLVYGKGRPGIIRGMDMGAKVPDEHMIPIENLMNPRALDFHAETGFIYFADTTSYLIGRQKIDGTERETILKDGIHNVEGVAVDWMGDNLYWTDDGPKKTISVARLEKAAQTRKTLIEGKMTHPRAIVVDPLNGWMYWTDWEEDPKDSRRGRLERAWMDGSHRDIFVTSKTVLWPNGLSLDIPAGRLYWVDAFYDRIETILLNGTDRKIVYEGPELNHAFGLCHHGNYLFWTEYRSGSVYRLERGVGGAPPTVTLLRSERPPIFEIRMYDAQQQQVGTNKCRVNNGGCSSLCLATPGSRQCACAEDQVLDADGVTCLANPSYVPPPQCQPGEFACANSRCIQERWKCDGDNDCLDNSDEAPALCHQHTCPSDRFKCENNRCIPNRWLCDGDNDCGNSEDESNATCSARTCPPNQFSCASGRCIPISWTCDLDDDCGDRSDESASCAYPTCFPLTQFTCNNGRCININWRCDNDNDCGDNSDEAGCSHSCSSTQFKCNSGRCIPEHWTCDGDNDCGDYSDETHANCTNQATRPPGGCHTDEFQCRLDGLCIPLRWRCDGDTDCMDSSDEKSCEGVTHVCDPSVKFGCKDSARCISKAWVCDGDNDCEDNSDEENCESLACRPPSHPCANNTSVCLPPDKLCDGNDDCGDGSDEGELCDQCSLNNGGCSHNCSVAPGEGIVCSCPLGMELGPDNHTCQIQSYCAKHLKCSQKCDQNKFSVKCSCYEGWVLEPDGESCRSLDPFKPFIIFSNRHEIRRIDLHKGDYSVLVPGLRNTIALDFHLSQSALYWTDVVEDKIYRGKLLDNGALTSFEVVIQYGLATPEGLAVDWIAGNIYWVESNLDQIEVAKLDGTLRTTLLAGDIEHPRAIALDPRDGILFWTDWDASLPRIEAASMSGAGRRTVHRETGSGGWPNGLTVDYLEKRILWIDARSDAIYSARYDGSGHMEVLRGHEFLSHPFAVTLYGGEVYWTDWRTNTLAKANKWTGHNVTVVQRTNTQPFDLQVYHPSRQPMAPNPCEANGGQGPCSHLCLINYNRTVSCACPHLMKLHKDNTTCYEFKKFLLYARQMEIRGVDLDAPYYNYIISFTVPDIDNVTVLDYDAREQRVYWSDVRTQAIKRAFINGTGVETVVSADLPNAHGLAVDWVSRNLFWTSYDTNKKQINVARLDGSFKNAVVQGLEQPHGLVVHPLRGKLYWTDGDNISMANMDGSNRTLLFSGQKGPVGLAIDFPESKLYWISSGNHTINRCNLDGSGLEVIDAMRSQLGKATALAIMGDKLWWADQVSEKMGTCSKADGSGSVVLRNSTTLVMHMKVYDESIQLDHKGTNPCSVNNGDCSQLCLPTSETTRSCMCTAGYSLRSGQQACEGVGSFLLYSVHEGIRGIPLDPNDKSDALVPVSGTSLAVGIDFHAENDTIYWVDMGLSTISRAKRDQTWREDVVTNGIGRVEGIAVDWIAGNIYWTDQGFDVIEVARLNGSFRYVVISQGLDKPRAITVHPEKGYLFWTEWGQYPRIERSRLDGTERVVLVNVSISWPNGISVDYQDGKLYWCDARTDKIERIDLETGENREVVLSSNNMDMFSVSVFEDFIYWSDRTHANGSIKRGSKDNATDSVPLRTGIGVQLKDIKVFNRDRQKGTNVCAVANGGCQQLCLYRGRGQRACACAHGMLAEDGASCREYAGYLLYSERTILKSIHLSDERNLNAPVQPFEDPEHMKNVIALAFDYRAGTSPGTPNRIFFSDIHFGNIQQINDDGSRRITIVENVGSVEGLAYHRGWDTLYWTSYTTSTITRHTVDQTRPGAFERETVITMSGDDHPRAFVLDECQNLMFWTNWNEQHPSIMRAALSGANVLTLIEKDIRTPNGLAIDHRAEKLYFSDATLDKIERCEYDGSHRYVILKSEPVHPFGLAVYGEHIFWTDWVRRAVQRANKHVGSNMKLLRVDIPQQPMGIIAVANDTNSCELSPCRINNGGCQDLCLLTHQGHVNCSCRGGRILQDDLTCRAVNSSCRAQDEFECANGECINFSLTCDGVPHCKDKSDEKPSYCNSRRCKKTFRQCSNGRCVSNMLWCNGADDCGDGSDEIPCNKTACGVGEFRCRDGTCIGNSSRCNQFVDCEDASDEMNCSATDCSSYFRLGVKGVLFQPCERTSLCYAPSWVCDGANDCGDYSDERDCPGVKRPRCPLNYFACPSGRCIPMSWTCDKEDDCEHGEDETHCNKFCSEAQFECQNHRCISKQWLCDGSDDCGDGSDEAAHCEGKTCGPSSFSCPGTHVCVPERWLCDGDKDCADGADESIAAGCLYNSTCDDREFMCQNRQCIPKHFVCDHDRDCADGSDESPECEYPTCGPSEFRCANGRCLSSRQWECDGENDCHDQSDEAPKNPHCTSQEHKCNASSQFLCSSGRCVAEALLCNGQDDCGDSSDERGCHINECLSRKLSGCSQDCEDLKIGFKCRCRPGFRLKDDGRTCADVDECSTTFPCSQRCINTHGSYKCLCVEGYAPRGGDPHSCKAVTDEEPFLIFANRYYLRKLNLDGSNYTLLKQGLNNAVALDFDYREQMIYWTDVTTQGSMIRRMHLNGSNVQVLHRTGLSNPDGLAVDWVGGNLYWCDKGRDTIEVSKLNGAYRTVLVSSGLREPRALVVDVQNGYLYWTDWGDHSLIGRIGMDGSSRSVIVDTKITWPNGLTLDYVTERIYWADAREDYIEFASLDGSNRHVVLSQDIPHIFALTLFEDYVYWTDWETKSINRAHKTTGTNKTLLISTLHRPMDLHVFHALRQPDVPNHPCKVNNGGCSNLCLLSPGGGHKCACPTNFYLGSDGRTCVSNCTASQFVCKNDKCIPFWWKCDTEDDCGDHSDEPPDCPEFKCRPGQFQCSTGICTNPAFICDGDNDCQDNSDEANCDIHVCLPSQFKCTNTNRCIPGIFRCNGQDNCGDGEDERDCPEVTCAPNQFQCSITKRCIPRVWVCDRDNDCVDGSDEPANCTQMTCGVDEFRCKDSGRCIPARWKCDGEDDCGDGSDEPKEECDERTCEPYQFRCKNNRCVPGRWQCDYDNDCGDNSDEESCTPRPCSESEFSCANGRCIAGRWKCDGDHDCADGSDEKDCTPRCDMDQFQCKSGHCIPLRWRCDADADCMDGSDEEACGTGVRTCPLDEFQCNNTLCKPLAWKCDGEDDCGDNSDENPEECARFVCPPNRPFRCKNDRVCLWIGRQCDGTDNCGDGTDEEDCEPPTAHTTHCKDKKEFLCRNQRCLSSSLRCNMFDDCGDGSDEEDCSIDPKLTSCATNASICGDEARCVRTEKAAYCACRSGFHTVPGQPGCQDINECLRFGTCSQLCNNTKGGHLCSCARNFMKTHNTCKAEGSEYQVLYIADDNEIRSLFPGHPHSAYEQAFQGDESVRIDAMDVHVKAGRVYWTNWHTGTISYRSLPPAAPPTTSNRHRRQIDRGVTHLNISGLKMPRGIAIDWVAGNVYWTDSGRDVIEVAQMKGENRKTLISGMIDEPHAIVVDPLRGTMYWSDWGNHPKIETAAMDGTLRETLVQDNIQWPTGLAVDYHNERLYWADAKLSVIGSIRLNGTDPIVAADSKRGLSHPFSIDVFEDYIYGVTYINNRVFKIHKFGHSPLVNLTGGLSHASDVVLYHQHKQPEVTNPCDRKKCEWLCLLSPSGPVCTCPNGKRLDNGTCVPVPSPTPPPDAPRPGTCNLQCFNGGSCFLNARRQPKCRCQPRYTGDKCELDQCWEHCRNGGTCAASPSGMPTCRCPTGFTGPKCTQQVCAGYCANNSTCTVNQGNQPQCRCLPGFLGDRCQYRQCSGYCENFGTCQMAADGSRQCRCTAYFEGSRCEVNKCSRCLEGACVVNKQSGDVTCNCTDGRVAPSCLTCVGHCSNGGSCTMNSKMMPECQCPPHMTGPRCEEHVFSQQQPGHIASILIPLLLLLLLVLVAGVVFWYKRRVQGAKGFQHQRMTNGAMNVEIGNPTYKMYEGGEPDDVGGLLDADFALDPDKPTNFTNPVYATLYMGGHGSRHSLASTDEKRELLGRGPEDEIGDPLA
binder,measurement,value
B1,binding result,binds
